Target: chimeric LILRB2-PILRβ receptor (aa 24-458 of hLILRB2) on mouse T cell hybridoma NFAT-GFP reporter cells (human) (UniProt Q8N423)
Test: cell-based or functional assay

chimeric LILRB2-PILRβ receptor (aa 24-458 of hLILRB2) on mouse T cell hybridoma NFAT-GFP reporter cells (human), sequence (Q8N423 other isoform, or with tags, fused parts or gaps mutant limits assumed, form in doubt): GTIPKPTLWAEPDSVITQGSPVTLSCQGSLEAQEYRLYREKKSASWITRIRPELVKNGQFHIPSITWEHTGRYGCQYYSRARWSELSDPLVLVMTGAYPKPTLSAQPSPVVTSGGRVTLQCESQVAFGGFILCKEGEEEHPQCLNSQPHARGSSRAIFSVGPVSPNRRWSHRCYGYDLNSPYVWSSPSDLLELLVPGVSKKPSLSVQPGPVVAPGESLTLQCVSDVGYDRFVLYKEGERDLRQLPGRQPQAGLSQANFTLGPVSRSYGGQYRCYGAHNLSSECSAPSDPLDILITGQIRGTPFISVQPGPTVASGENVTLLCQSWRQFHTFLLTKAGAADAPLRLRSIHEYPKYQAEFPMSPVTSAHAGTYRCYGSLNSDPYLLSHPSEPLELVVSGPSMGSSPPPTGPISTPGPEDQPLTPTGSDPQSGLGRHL

- GFP expression of LILRB2 reporter cells, immobilized monomeric GST-Angptl2: 20%
- GFP expression of LILRB2 reporter cells, soluble monomeric GST-Angptl2: 3.56%
- GFP induction of LILRB2 reporter cells by immobilized Angptl2, no antibody: 19.9%
Substance: GST-human Angptl2, bacterially expressed (GST-Angptl2-FLAG) (from UniProt Q9UKU9 23-493) (ligand)
